Measured values published in patent publication US20180273635A1 (Zymeworks, published 2018).
Numbering of substitutions follows the chain as printed. Like-named read-outs stand apart in the source and are kept apart here.

B1: Variant 14021 (antibody, name in Kabat numbering, V domains shown)
VH: EVQLVESGGGLVQPGGSLRLSCAASGFTFQDYTMDWVRQAPGKGLEWVGDVNPNSGGSIYNQRFKGRFTFSVDRSWNTLYLQMNSLRAEDTAVYYCARNLGPSFYFDYWGQGTLVTVSS
VL: DIQMTQSPSSLSASVGDRVTITCKASQDVSIGVAWYQQKPGKAPKLLIWSASYRYTGVPSRFSGSGSGTDFTLTISSLQPEDFATYYCQQYYIYPYTFGQGTKVEIKR
notes: also called v14021
B2: Variant 14022 (antibody, name in Kabat numbering, V domains shown)
VH: B1 VH with W76K, S103W
VL: B1 VL
notes: also called v14022
B3: Variant 14023 (antibody, name in Kabat numbering, V domains shown)
VH: B1 VH with S103W
VL: B1 VL
notes: also called v14023
B4: variant 10014 (antibody)
heavy: EVQLVESGGGLVQPGGSLRLSCAASGFTFADYTMDWVRQAPGKGLEWVADVNPNSGGSIYNQRFKGRFTLSVDRSKNTLYLQMNSLRAEDTAVYYCARNLGPSFYFDYWGQGTLVTVSSASTKGPSVFPLAPSSKSTSGGTAALGCLVKDYFPEPVTVSWNSGALTSGVHTFPAVLQSSGLYSLSSVVTVPSSSLGTQTYICNVNHKPSNTKVDKKVEPKSCDKTHTCPPCPAPELLGGPSVFLFPPKPKDTLMISRTPEVTCVVVDVSHEDPEVKFNWYVDGVEVHNAKTKPREEQYNSTYRVVSVLTVLHQDWLNGKEYKCKVSNKALPAPIEKTISKAKGQPREPQVYVYPPSRDELTKNQVSLTCLVKGFYPSDIAVEWESNGQPENNYKTTPPVLDSDGSFALVSKLTVDKSRWQQGNVFSCSVMHEALHNHYTQKSLSLSPG
light: not shown
Fc: not shown
notes: OA format; combines the mutations of 12610 and 12611; also called v10014
B5: Variant 14032 (antibody, human IgG1, kappa)
heavy: B4 heavy with A30Q, S103W
light: not shown
chain: not shown
notes: OA (one-armed) format; clones 8780, 1811, 4372; also called v14032
B6: variant 12533 (antibody, human IgG1, kappa)
heavy: B4 heavy with A30T
light: DIQMTQSPSSLSASVGDRVTITCKASQDVSIGVAWYQQKPGKAPKLLIYSASYRYTGVPSRFSGSGSGTDFTLTISSLQPEDFATYYCQQYYIYPAAFGQGTKVEIKRTVAAPSVFIFPPSDEQLKSGTASVVCLLNNFYPREAKVQWKVDNALQSGNSQESVTEQDSKDSTYSLSSTLTLSKADYEKHKVYACEVTHQGLSSPVTKSFNRGEC
chain: not shown
notes: also called v12533

Columns and labels:
[1] = biological target: T1, HER2 expressed on the surface of cells (human, UniProt P04626 23-1255); test: cell-based or functional assay
[2] = biological target: T1, HER2 expressed on the surface of cells; test: cell-based or functional assay; remark: listed apart in the source
[3] = biological target: T1, HER2 expressed on the surface of cells; test: cell-based or functional assay; remark: listed apart in the source
[4] = biological target: T1, HER2 expressed on the surface of cells; test: cell-based or functional assay; remark: listed apart in the source
[5] = biological target: T1, HER2 expressed on the surface of cells; test: cell-based or functional assay; remark: listed apart in the source
[6] = biological target: T1, HER2 expressed on the surface of cells; test: flow cytometry on BT474 cells, n=1
Procedure: (§1) Binding of the test antigen-binding constructs to the surface of HER2+ cells was determined by flow cytometry. Cells were washed with PBS and resuspended in DMEM at 1×10⁵ cells/100 μl. 100 μl cell suspension was added into each microcentrifuge tube, followed by 10 μl/tube of the antigen-binding constructs. The tubes were incubated for 2 hr at 4° C. on a rotator. The microcentrifuge tubes were centrifuged for 2 min 2000 RPM at room temperature and the cell pellets washed with 500 μl media. Each cell pellet was resuspended in 100 μl of fluorochrome-labelled secondary antibody diluted in media to 2 μg/sample. The samples were then incubated for lhr at 4° C. on a rotator. After incubation, the cells were centrifuged for 2 min at 2000 rpm and washed in media. The cells were resuspended in 500 μl media, filtered, transferred to a tube containing 5 μl propidium iodide (PI) and analyzed on a BD LSR II flow cytometer according to the manufacturer's instructions. The B50 of the tested antigen-binding constructs was assessed by FACS with data analysis and curve fitting performed in GraphPad Prism. The experiment was carried out once (n=1) in SKBr3 cells, and twice (n=2) in SKOV3, MCF7, and BT-474 cells.
(§2) The experiment was performed once (n=1) in each cell line.

[7] = biological target: T1, HER2 expressed on the surface of cells; test: flow cytometry on SKBR3 cells, n=1
Procedure: as §1, §2

[8] = biological target: T1, HER2 expressed on the surface of cells; test: flow cytometry on MCF7 cells (low HER2), n=1
Procedure: as §1, §2

[9] = biological target: T1, HER2 expressed on the surface of cells; test: flow cytometry on BT474 cells, n=1; B50 = concentration at 50% of Bmax
Procedure: as §1, §2

[10] = biological target: T1, HER2 expressed on the surface of cells; test: flow cytometry on SKBR3 cells, n=1; B50 = concentration at 50% of Bmax
Procedure: as §1, §2

[11] = biological target: T1, HER2 expressed on the surface of cells; test: flow cytometry on MCF7 cells (low HER2), n=1; B50 = concentration at 50% of Bmax
Procedure: as §1, §2

[12] = biological target: T2, Recombinant human HER2 (human, UniProt P04626 23-652); test: SPR, pre-SEC; ratio to WT v10013
T2 construct: extracellular domain; analyte of the SPR assays; also called HER2 ECD; ECD2 of HER2
Procedure: (§3) The affinity towards HER2 ECD of the samples was measured by SPR on a Biacore T200 as follows. Between 2000 and 4000 RU of anti-human Fc injected at concentration between 5 and 10 μg/ml was immobilized on a CM5 chip using standard amine coupling. Antigen-binding constructs were captured on the anti-human Fc (injected at concentration at 0.51 microg/mL in PBST, 1 min at 10 microl/min) at response levels ranging from 120-270 RU. […] HER2 dilutions were analyzed in duplicates. Sensograms were fit globally to a 1: 1 Langmuir binding model, using the software provided with the Biacore T200. All experiments were conducted at 25° C.
(§4) The affinity of antigen-binding constructs in OA format was determined by SPR following protein A purification. […] Antigen-binding constructs in FSA format were purified by protein A affinity and SEC prior to assessment of affinity by SPR.

[13] = biological target: T2, Recombinant human HER2; test: SPR, post-SEC; ratio to WT v10013
Procedure: as §3, §4

[14] = biological target: T2, Recombinant human HER2; test: SPR, variant captured on anti-human Fc, HER2 flowed, 25 C, pre-SEC
Procedure: as §3

[15] = biological target: T2, Recombinant human HER2; test: SPR, variant captured on anti-human Fc, HER2 flowed, 25 C, post-SEC
Procedure: as §3, §4

[16] = biological target: T3, Recombinant human HER2 (human, UniProt P04626 23-652); test: SPR, 25 C; Ka ratio to WT v10013;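 further: constructs captured via anti-human Fc on CM5 chip, HER2 ECD as analyte in duplicate dilutions, sensorgrams globally fit to 1:1 Langmuir model on Biacore T200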
T3 construct: extracellular domain; Analyte of the SPR assays; also called HER2 ECD; ECD2 of HER2

[17] = biological target: T3, Recombinant human HER2; test: calculated from the SPR Ka ratio to WT v10013;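 further: SPR at 25 °C with constructs captured on an anti-human Fc chip and HER2 extracellular domain as analyte, kinetics fitted to a 1:1 Langmuir model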
[18] = biological target: T3, Recombinant human HER2; test: SPR at 25 C of the OA variant, equilibrium association constant
Procedure: as §3

[19] = biological target: T3, Recombinant human HER2; test: as above; remark: listed apart in the source
Procedure: as §3

[20] = biological target: T3, Recombinant human HER2; test: SPR at 25 C of the OA variant, logarithm of the association constant
Procedure: as §3

[21] = biological target: T3, Recombinant human HER2; test: as above; remark: listed apart in the source
Procedure: as §3

[22] = biological target: T3, Recombinant human HER2; test: SPR, Biacore T200, 25 C; variant captured on anti-human Fc, HER2 flowed;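 further: HER2 extracellular domain analyte run as duplicate dilutions over amine-coupled anti-Fc on a CM5 chip, rates from global sensorgram fitting with a 1:1 Langmuir model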
Procedure: as §3

Binder | growth inhibition IC50 (potency), SKBR3 cells [1] [nM] | growth inhibition span (percentage of cells killed), SKBR3 cells [1] [%] | growth inhibition span ratio to WT, SKBR3 cells [1] [fold] | growth inhibition IC50 (potency), BT474 cells [2] [nM] | growth inhibition span (percentage of cells killed), BT474 cells [2] [%] | growth inhibition span ratio to WT, BT474 cells [2] [fold] | growth inhibition IC50 (potency), BT474 cells + EGF [3] [nM] | growth inhibition span (percentage of cells killed), BT474 cells + EGF [3] [%] | growth inhibition span ratio to WT, BT474 cells + EGF [3] [fold] | growth inhibition IC50 (potency), NCI-N87 cells, 5 days [4] [nM] | growth inhibition span (percentage of cells killed), NCI-N87 cells [4] [%] | increase in efficacy with respect to the WT, NCI-N87 cells [4] [fold] | increase in potency with respect to the WT, NCI-N87 cells [4] [fold] | growth inhibition span (percentage of cells killed), MDA-MB-175 cells [5] [%] | Bmax [6] [MFI] | Bmax [7] [MFI] | Bmax [8] [MFI] | B50 [9] [nM] | B50 [10] [nM] | B50 [11] [nM] | also measured
B1 | 0.32 | 31 | 1.8 | 0.49 | 33 | 3.1 | 2 | 44 | 2.4 | 2 | 44 | 2.6 | 4.6 | 82 | 23000 | 31000 | 610 | 2.4 | 10 | 1 | 
B2 | 0.41 | 26 | 1.6 | 0.54 | 28 | 2.6 | 2.8 | 35 | 1.9 | 5.2 | 63 | 3.7 | 1.8 | 83 | 23000 | 31000 | 630 | 3 | 9.8 | 2 | 
B3 | 0.34 | 32 | 1.9 | 0.63 | 35 | 3.3 | 1.7 | 45 | 2.5 | 2.5 | 52 | 3.1 | 3.6 | 84 | 23000 | 29000 | 590 | 2 | 3.9 | 0.8 | 
B4 |  |  |  |  |  |  |  |  |  |  |  |  |  |  |  |  |  |  |  |  | Ka, mut/Ka, WT [12]: 7.9; Ka, mut/Ka, WT [13]: 8; Kd [14]: 2.5 nM; Kd [15]: 2.6 nM
B5 |  |  |  |  |  |  |  |  |  |  |  |  |  |  |  |  |  |  |  |  | Ka, mut/Ka, WT [16]: 21 fold; ΔΔG [17]: -7.53 kJ/mol; Ka [18]: 1.3e+09 M⁻¹; Ka [19]: 1.3e+09 M⁻¹; Log Ka [20]: 9.1; Log Ka [21]: 9.1; Kd [22]: 0.79 nM; koff [22]: 3.9e-05 s⁻¹; kon [22]: 49000 M⁻¹ s⁻¹
B6 |  |  |  |  |  |  |  |  |  |  |  |  |  |  |  |  |  |  |  |  | Ka, mut/Ka, WT [12]: 3.2; Ka, mut/Ka, WT [13]: 2.9; Kd [14]: 6.2 nM; Kd [15]: 7.2 nM
